From publication PMC7661038, “Dot1l interacts with Zc3h10 to activate Ucp1 and other thermogenic genes” (eLife, 2020)

Target: T1, Flag-Zc3h10 (mouse, UniProt Q8R205 1-435)
T1 sequence (looked up): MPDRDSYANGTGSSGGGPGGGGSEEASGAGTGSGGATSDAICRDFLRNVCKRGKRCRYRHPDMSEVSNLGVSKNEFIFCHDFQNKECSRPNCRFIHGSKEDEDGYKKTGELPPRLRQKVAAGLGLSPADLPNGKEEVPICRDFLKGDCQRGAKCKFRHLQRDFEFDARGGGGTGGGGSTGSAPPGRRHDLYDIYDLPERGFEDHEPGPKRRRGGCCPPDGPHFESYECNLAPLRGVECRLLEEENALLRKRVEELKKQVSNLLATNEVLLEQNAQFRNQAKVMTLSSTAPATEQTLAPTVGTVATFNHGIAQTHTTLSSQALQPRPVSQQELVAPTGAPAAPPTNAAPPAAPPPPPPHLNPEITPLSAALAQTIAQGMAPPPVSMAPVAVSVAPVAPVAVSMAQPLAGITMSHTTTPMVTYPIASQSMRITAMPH
Assay: cell-based or functional assay

- Ucp1 promoter activity, luciferase reporter (−5.5 kb Ucp1-Luc) in HEK293 cells cotransfected with Zc3h10 and Dot1l, against empty vector control (Zc3h10 alone over 3-fold; Dot1l alone no activation): 11 fold
B1: HA-Dot1l (enzyme, mouse, UniProt Q6XZL8 1-1540, looked up)
chain: MGEKLELRLKSPVGAEPAVYPWPLPVYDKHHDAAHEIIETIRWVCEEIPDLKLAMENYVLIDYDTKSFESMQRLCDKYNRAIDSIHQLWKGTTQPMKLNTRPSNGLLRHILQQVYNHSVTDPEKLNNYEPFSPEVYGETSFDLVAQMIDEIKMTEDDLFVDLGSGVGQVVLQVAAATNCKHHYGVEKADIPAKYAETMDREFRKWMKWYGKKHAEYTLERGDFLSEEWRERIANTSVIFVNNFAFGPEVDHQLKERFANMKEGGRIVSSKPFAPLNFRINSRNLSDIGTIMRVVELSPLKGSVSWTGKPVSYYLHTIDRTILENYFSSLKNPKLREEQEAARRRQQRENKSNATTPTKVPESKAAATEAPADSGAEEEKSGVATVKKPSPSKARKKKLNKKGRKMAGRKRGRPKKMSAASAERKSKKSQSTLDLLHSPPPAPPSASPQDAYRAPHSPFYQLPPSTQLHSPNPLLVAPTPPALQKLLESFRIQYLQFLAYTKTPQYKANLQQLLDQEKEKNTQLLGTAQQLFGHCQAQKEEIRRLFQQKLDELGVKALTYNDLIQAQKEISAHNQQLREQSEQLEKDNSELRSQSLRLLRARCEELRLDWSTLSLENLRKEKQALRSQISEKQRHCLELQISIVELEKTQRQQELLQLKSCVPPDDALSLHLRGKGALGRELEADAGRLRLELDCAKISLPHLSSMSPELSMNGHAASYELCNAASRPSSKQNTPQYLASPLDQEVVPCTPSHSGRPRLEKLSGLALPDYTRLSPAKIVLRRHLSQDHTGASKAATSEPHPRPEHPKESSLPYQSPGLSNSMKLSPQDPPLASPATSPLTSEKGSEKGVKERAYSSHGETITSLPVSIPLSTVQPNKLPVSIPLASVVLPSRAERARSTPSPVPQPRDSSATLEKQTGASAHGAGGAGAGSRSLAVAPTGFYAGSVAISGALASSPAPLASGMESAVFDESSGPSSLFATMGSRSTPPQHPPLLSQSRNSGPASPAHQLTASPRLSVTTQGSLPDTSKGELPSDPAFSDPESEAKRRIVFSISVGASSKQSPSTRHSPLTSGTRGDCVQSHGQDSRKRSRRKRASAGTPSLSTGVSPKRRALPTVAGLFTQSSGSPLNLNSMVSNINQPLEITAISSPESSLKSSPTPYQDHDQPPVLRKERPLGLTNGAHYSPLTSDEEPGSEDEPSSARIERKIATISLESKSPPKTLENGGGLVGRKSAPSSEPINSSKWKSTFSPISDLGLAKAVDSPLQAGSALSHSPLFSFRPSLEEPAAEAKLPTHPRKSFAGSLGAAEGPSPGTNPPNGLAFSGGLAADLGLHSFNDGASLSHKGPDVTGLSASLSFPSQRGKDSTTEANPFLSRRQPEGLGGLKGEGNANKESGESLPLCGPSDKASLPHGSRASKGRDRELDFKGGHNLFISAAAVPPGGLLGGPGLVTVASSAGSATPTAQAPRPFLSTFAPGPQFTLGPMSLQANLGSVAGSSVLQSLFSTVPAAAGLVHVSSTATRLTNSHTMGSFSSGVAGGTVGGN
